Reference: US7935341B2, “Antibodies to complementary peptides of thrombin or portions thereof” (Orthologic Corp., priority 2005, dated 2011)
No end group written: not given here.

Molecular target: T1, biotinylated thrombin ([B]-thrombin) (Homo sapiens, UniProt P00734)
T1 construct: present in blood plasma in the form of a precursor, pro-thrombin
Experiment: Binding of biotinylated thrombin to complementary peptides coated on ELISA plates
Details: for specific binding of [B]-thrombin to the complementary peptide: peptide-coated ELISA plate, total minus nonspecific binding (excess unlabeled thrombin), HRP-avidin readout at 450 nm
Experimental: Complementary peptides (CPs) (AC-23, 23C53, C1053 and ND1053) were coated onto individual wells of 96 well plates by incubating in a 10 μg/ml solution of peptide in carbonate buffer (pH 9.5) or in Phosphate Buffered Saline (PBS) overnight at room temperature. The amino acid sequences of particular complementary peptides are described below and are depicted in FIG. 4. In particular, the following CPs were generated:
Prior to use, the wells were covered with blocking solution containing 0.1% bovine serum albumin (BSA) to reduce non-specific binding. The plates were rinsed and stored at 4° C. until used. To perform the binding experiments, the peptide-coated ELISA plates were blocked with 200 μl per well of blocking buffer (0.1% BSA (w/v) in PBS) for 90 minutes at room temperature. The plates were subsequently rinsed two times with distilled water. Total and nonspecific (NS) binding was determined, respectively, by adding 100 μl per well of 125 ng/ml of biotinylated thrombin ([B]-thrombin) alone or containing 12.5 μg/ml of unlabeled thrombin for 90 minutes at room temperature. The plates were then rinsed four times with PBSTT (PBS+0.5% v/v Tween 20 (polyoxyethylene sorbitan monolaurate)), and 100 μl of Avidin-HRP antibody (Becton Dickinson) diluted to 1:1000 was added per well for 120 minutes at room temperature. The plates were subsequently rinsed four times with PBSTT, and 100 μl of Turbo TMB substrate (Pierce) was added for 30 minutes at room temperature. The reaction was stopped by adding 100 μl per well of 1 N H2SO4 and the plates were read immediately at 450 nm using a Spectra Max Plus plate reader (Molecular Device). The specific binding of [B]-thrombin to the coated wells was determined by subtracting non-specific binding from total binding.
Specific thrombin binding was determined using indicated concentrations of biotinylated thrombin alone and with a 100-fold excess of unlabeled thrombin (to define nonspecific binding).

KGSPTVTFTGIPSFPFIRLVTS (complementary peptides) [23C53]
specific binding of [B]-thrombin to the complementary peptide: specifically bound

TFTGIPSFPF (complementary peptides) [10C53]
specific binding of [B]-thrombin to the complementary peptide: not

KGSPTVTFTGIPCFPFIRLVTS [AC-23]
EC50 (increasing concentrations of [B]-thrombin on AC-23-coated wells, n=2±SD, read-out: half maximal binding of [B]-thrombin): 4.8 ± 0.2 nM | specific binding of [B]-thrombin to the complementary peptide: specifically bound
